Results taken from patent US20030194402A1.

B1: chimeric mouse/human IgG1 anti-platelet mAb (7E3) (antibody, INN chains, looked up, V domains shown)
VH: EVQLQQSGTVLARPGASVKMSCEASGYTFTNYWMHWVKQRPGQGLEWIGAIYPGNSDTSYIQKFKGKAKLTAVTSTTSVYMELSSLTNEDSAVYYCTLYDGYYVFAYWGQGTLVTVSA
VL: EIVLTQSPVTLSVTPGDSVSLSCRASRDISNNLHWFQQTSHESPRLLIKYASQSMSGIPSRFSGSGSGTDFTLSINSVETEDFGMYFCQQTNSWPYTFGGGTKLEIK
modifications: IgG1

Key:
[1] = molecular target: T1, human lymphotoxin (TNFβ) (human) (UniProt P01374); experiment: cell-based or functional assay
T1 sequence (looked up): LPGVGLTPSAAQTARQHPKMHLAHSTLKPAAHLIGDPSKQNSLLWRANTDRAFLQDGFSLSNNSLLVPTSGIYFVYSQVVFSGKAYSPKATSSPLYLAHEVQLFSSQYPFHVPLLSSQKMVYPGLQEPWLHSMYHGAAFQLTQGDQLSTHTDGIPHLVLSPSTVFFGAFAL

[2] = molecular target: human tumor necrosis factor-α (TNFα) (human) (UniProt P01375); experiment: cell-based or functional assay
human tumor necrosis factor-α (TNFα) (human), sequence (P01375 77-233): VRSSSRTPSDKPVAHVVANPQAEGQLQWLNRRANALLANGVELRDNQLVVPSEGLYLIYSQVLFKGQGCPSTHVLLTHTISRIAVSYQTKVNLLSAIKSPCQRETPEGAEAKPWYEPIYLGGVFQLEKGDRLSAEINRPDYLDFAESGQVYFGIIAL

| Molecule | amount needed for the same degree of TNFβ inhibition, against p75P-sf2 [1] | IL-6 in supernatant of FS-4 fibroblasts after 18 h; TNF 0.3 ng/ml, antibody 4 µg/ml [2] | IL-6 in supernatant of FS-4 fibroblasts after 18 h; TNF 1.5 ng/ml, antibody 4 µg/ml [2] | IL-6 in supernatant of FS-4 fibroblasts after 18 h; TNF 7.5 ng/ml, antibody 4 µg/ml [2] |
| --- | --- | --- | --- | --- |
| p55-sf2 (p55 TNF receptor/IgG1 heavy chain single fusion with truncated light chain JCK) (from UniProt P19438 3-159) (Fc fusion) | 3 fold | – | – | – |
| B1 | – | 1.6 ng/mL | 1.96 ng/mL | 2.16 ng/mL |
